The results in this text go back to patent US20230063116A1 (Regeneron, published 2023).

Where two headings read alike, the source gives them in different places.

T1: VEGF110 (hVEGF110, aa 207-318) (human, UniProt P15692 207-318)
T1 sequence (looked up): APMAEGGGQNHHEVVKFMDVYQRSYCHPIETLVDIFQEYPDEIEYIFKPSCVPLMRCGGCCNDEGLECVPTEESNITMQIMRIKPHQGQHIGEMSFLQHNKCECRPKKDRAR

B1: VEGF121 (hVEGF121, aa 207-327) (ligand)
chain: APMAEGGGQNHHEVVKFMDVYQRSYCHPIETLVDIFQEYPDEIEYIFKPSCVPLMRCGGCCNDEGLECVPTEESNITMQIMRIKPHQGQHIGEMSFLQHNKCECRPKKDRARQEKCDKPRR
B2: human VEGF165 (REGN110) (ligand)
chain: APMAEGGGQNHHEVVKFMDVYQRSYCHPIETLVDIFQEYPDEIEYIFKPSCVPLMRCGGCCNDEGLECVPTEESNITMQIMRIKPHQGQHIGEMSFLQHNKCECRPKKDRARQENPCGPCSERRKHLFVQDPQTCKCSCKNTDSRCKARQLELNERTCRCDKPRR
notes: It is treated here as the same molecule; also called hVEGF165; hVEGF165(M1-R191)
B3: REGN7483^F (homodimer mini-trap, FabRICATOR cleaved from aflibercept) (receptor)
chain: SDTGRPFVEMYSEIPEIIHMTEGRELVIPCRVTSPNITVTLKKFPLDTLIPDGKRIIWDSRKGFIISNATYKEIGLLTCEATVNGHLYKTNYLTHRQTNTIIDVVLSPSHGIELSVGEKLVLNCTARTELNVGIDFNWEYPSSKHQHKKLVNRDLKTQSGSEMKKFLSTLTIDGVTRSDQGLYTCAASSGLMTKKNSTFVRVHEKDKTHTCPPCPAPELLG
modifications: here or on the partner: N-linked glycans at N36, N68, N123, N196 (Table C)
B4: REGN7483^R (homodimer mini-trap, recombinant) (receptor)
chain: B3 chain
modifications: here or on the partner: N-linked glycans at N36, N68, N123, N196 (Table C)
B5: REGN112 (receptor)
chain: SDTGRPFVEMYSEIPEIIHMTEGRELVIPCRVTSPNITVTLKKFPLDTLIPDGKRIIWDSRKGFIISNATYKEIGLLTCEATVNGHLYKTNYLTHRQTNTIIDVVLSPSHGIELSVGEKLVLNCTARTELNVGIDFNWEYPSSKHQHKKLVNRDLKTQSGSEMKKFLSTLTIDGVTRSDQGLYTCAASSGLMTKKNSTFVRVHEKDKTHTCPPC
B6: REGN3, full-length VEGF Trap (aflibercept) (Fc fusion, human, UniProt P17948 129-231, looked up, not shown: a dimerising Fc or GST)
chain: SDTGRPFVEMYSEIPEIIHMTEGRELVIPCRVTSPNITVTLKKFPLDTLIPDGKRIIWDSRKGFIISNATYKEIGLLTCEATVNGHLYKTNYLTHRQTNTIIDVVLSPSHGIELSVGEKLVLNCTARTELNVGIDFNWEYPSSKHQHKKLVNRDLKTQSGSEMKKFLSTLTIDGVTRSDQGLYTCAASSGLMTKKNSTFVRVHEK
notes: range 129-231;range 226-327; also called Eylea; VEFGR1d2-VEGFR2d3 VEGF Trap
B7: REGN7080 (VEGF minitrap-G4Sx6-VEGF minitrap mmH) (receptor)
chain: SDTGRPFVEMYSEIPEIIHMTEGRELVIPCRVTSPNITVTLKKFPLDTLIPDGKRIIWDSRKGFIISNATYKEIGLLTCEATVNGHLYKTNYLTHRQTNTIIDVVLSPSHGIELSVGEKLVLNCTARTELNVGIDFNWEYPSSKHQHKKLVNRDLKTQSGSEMKKFLSTLTIDGVTRSDQGLYTCAASSGLMTKKNSTFVRVHEKGGGGSGGGGSGGGGSGGGGSGGGGSGGGGSSDTGRPFVEMYSEIPEIIHMTEGRELVIPCRVTSPNITVTLKKFPLDTLIPDGKRIIWDSRKGFIISNATYKEIGLLTCEATVNGHLYKTNYLTHRQTNTIIDVVLSPSHGIELSVGEKLVLNCTARTELNVGIDFNWEYPSSKHQHKKLVNRDLKTQSGSEMKKFLSTLTIDGVTRSDQGLYTCAASSGLMTKKNSTFVRVHEKEQKLISEEDLGGEQKLISEEDLHHHHHH
notes: Monomeric single chain; also called REGN7080 (G4Sx6 linker); single chain mini-trap with (G4S)6 linker and C-terminal mmH tag

Test [1] concerns the target chimeric VEGFR1 receptors on HEK293/D9/Flt-IL18Rα/Flt-IL18Rβ clone V3H9 cells (UniProt P17948). Briefly: cell-based or functional assay.
For test [2] the target is unchanged. Description: cell-based or functional assay. This is another data set of the same source.
The target is the same in test [3]. Description: cell-based or functional assay. The source holds these as a separate data set.
Test [4] has as its target T2, chimeric VEGFR1 receptors on HEK293/D9/Flt-IL18Rα/Flt-IL18Rβ clone V3H9 cells (UniProt P17948 27-758; Q13478 351-541; P17948 27-758; O95256 378-599, limits assumed). Briefly: cell-based or functional assay.
The target in test [5] is T2, chimeric VEGFR1 receptors on …. Description: cell-based or functional assay. This is another data set of the same source.
Test [6] has the same target. Description: cell-based or functional assay. The source holds these as a separate data set.
For test [7], the target named is B6. Description: SPR, Biacore, 25 C; trap captured on anti-VEGFR1 mAb surface, hVEGF165 injected; 1:1 fit. Here is the method:
(§1) Experimental Procedure. Equilibrium dissociation constants (KD values) for human VEGF₁₆₅ binding to various purified VEGF mini-trap constructs were determined using a real-time surface plasmon resonance biosensor using a Biacore 3000 instrument. All binding studies were performed in 10 mM HEPES, 150 mM NaCl, 3 mM EDTA, and 0.05% v/v Surfactant Tween-20, pH 7.4 (HBS-ET) running buffer at 25° C. The Biacore sensor surface was first derivatized by amine coupling with a monoclonal mouse anti-VEGFR1 antibody to capture VEGF mini-trap constructs. Binding studies were performed on the human VEGF reagent, human VEGF₁₆₅ (human VEGF₁₆₅; SEQ ID NO: 31). Different concentrations of VEGF₁₆₅ reagent, prepared in HBS-ET running buffer (2 nM — 62.5 pM; 2-fold serial dilution for human VEGF₁₆₅), were injected over an anti-VEGFR1-captured VEGF mini-trap construct surface for 1.8 minutes at a flow rate of 90 μL/minute, while the dissociation of VEGF mini-trap constructs bound VEGF₁₆₅ reagent was monitored for 60 minutes in HBS-ET running buffer. Kinetic association (kₐ) and dissociation (kd) rate constants were determined by fitting the real-time sensorgrams to a 1:1 binding model using Scrubber 2.0c curve fitting software. Binding dissociation equilibrium constants (KD) and dissociative half-lives (t½) were calculated from the kinetic rate constants as: […]
A general note: In SPR one partner is held on a chip, and binding of the other changes the refractive index at the surface.

Test [8] concerns the target B6. Description: SPR, Biacore 3000, 25 C; trap captured on anti-VEGFR1 mAb surface, hVEGF165 injected; 1:1 fit.
The target in test [9] is VEGF121 (hVEGF121, aa 207-327) (human), P15692. Briefly: cell-based or functional assay.
In test [10] the target is T1, VEGF110 (hVEGF110, aa 207-318). Description: cell-based or functional assay.
Test [11] concerns the target B2. Description: cell-based or functional assay.
For test [12], the target named is B1. Description: cell-based or functional assay.
In test [13] the target is B2. Description: SPR, Biacore, 25 C; trap captured on anti-VEGFR1 mAb surface, hVEGF165 injected; 1:1 fit. Here is the method:
as §1

For test [14], the target named is B2. Briefly: SPR, Biacore, 25 C; trap captured on anti-VEGFR1 mAb surface, hVEGF165 injected. As to the method: as §1
The target in test [15] is T1, VEGF110 (hVEGF110, aa 207-318). Description: cell-based or functional assay. The source holds these as a separate data set.
The target of test [16] is B1. Description: cell-based or functional assay.
Test [17] has as its target B2. Description: SPR, Biacore 3000, 25 C; trap captured on anti-VEGFR1 mAb surface, hVEGF165 injected.
For test [18], the target named is B2. Briefly: SPR, Biacore 3000, 25 C; trap captured on anti-VEGFR1 mAb surface, hVEGF165 injected; 1:1 fit.
The target in test [19] is T1, VEGF110 (hVEGF110, aa 207-318). Description: cell-based or functional assay. This is another data set of the same source.
Test [20] concerns the target B2. Description: cell-based or functional assay. This is another data set of the same source.
For test [21], the target named is B1. Briefly: cell-based or functional assay.
Test [22] has as its target T1, VEGF110 (hVEGF110, aa 207-318). Briefly: cell-based or functional assay. The source holds these as a separate data set.
Test [23] addresses B2. Briefly: cell-based or functional assay. This is another data set of the same source.
The target of test [24] is B1. Description: cell-based or functional assay.

chimeric VEGFR1 receptors on HEK293/D9/Flt-IL18Rα/Flt-IL18Rβ clone V3H9 cells (UniProt P17948), sequence (P17948 other isoform, or with tags, fused parts or gaps mutant limits assumed, chain 1 of 2): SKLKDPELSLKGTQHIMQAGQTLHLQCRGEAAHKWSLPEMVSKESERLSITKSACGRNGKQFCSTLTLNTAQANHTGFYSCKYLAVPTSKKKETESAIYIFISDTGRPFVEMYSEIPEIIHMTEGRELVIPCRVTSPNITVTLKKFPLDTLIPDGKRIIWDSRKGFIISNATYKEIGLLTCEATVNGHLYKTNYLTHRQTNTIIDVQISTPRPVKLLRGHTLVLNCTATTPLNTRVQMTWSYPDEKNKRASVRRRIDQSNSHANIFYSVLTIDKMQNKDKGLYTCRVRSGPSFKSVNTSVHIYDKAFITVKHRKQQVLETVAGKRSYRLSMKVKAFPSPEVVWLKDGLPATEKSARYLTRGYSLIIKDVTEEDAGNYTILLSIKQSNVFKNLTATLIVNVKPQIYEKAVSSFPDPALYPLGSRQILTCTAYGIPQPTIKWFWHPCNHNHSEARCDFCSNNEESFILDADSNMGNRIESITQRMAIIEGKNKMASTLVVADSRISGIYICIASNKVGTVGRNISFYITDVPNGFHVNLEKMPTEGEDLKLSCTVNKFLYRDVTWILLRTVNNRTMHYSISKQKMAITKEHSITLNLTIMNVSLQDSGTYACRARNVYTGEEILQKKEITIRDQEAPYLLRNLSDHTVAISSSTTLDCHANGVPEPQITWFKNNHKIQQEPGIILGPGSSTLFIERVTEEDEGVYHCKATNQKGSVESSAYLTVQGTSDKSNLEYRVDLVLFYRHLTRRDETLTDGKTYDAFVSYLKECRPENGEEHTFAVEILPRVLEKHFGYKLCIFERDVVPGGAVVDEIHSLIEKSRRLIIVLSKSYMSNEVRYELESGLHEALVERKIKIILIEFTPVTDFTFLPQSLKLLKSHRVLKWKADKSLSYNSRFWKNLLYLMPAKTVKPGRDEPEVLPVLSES
chimeric VEGFR1 receptors on HEK293/D9/Flt-IL18Rα/Flt-IL18Rβ clone V3H9 cells (UniProt P17948), sequence (P17948 other isoform, or with tags, fused parts or gaps mutant limits assumed, chain 2 of 2): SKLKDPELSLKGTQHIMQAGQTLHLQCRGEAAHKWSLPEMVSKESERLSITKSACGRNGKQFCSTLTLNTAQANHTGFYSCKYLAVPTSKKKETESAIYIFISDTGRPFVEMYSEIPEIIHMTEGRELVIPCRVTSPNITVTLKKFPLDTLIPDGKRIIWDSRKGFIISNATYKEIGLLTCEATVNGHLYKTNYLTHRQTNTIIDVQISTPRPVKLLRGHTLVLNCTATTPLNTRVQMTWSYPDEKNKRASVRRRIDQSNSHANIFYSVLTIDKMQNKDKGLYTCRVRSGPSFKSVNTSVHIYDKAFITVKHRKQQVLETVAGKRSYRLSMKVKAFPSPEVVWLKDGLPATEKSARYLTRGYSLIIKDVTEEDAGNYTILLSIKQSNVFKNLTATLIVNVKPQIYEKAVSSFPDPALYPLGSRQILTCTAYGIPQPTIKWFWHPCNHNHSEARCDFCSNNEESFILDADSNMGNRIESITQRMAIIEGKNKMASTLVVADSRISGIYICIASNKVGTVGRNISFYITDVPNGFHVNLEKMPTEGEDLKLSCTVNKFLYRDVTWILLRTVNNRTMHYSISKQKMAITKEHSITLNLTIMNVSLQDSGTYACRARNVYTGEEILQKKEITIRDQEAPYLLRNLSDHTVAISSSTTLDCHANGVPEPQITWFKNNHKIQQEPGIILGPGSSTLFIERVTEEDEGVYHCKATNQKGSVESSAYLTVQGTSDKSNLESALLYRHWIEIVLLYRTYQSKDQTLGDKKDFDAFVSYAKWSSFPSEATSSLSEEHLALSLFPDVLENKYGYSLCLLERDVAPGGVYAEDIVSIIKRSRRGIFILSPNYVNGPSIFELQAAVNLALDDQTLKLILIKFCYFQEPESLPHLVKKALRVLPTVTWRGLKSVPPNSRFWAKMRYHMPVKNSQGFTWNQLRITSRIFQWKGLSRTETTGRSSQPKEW
T2 sequence (P17948 other isoform, or with tags, fused parts or gaps mutant limits assumed, chain 1 of 2): as the sequence (P17948 other isoform, or with tags, fused parts or gaps mutant limits assumed, chain 1 of 2) above
T2 sequence (P17948 other isoform, or with tags, fused parts or gaps mutant limits assumed, chain 2 of 2): as the sequence (P17948 other isoform, or with tags, fused parts or gaps mutant limits assumed, chain 2 of 2) above

In the case of “VEGF110 (hVEGF110, aa 207-318) (from UniProt P15692 207-318) (ligand)”, the EC50 (M), activation of HEK293/D9/Flt-IL18Ra/Flt-IL18Rb (luciferase) is 1.51e-11 M in [1], 2.4e-11 M in [2] and 1.14e-11 M in test [3].

As for B1, the “EC50 (M), activation of HEK293/D9/Flt-IL18Ra/Flt-IL18Rb (luciferase)” value in test [4] was 2.56e-11 M; in test [5], 4.4e-11 M; in test [6] it was 2.12e-11 M.

Broadly, the Kd is the equilibrium constant for the complex coming apart. Low readings indicate tighter binding, high ones weaker binding. On to B2, for which the “EC50 (M), activation of HEK293/D9/Flt-IL18Ra/Flt-IL18Rb (luciferase)” value in [5] was determined as 4.3e-11 M. Besides, the equilibrium dissociation constant (Kd) in test [7] was at most 0.00127 nM; in [8], at most 0.00179 nM.

The molecule B3 registered an IC50 (M), inhibition of VEGFR1 signaling (luciferase), 20 pM VEGF121 in test [9] of 9.27e-12 M.

The molecule B4 yielded an IC50 (M), inhibition of VEGFR1 signaling (luciferase), 20 pM VEGF121 in test [9] of 8.79e-12 M.

Turning to B5, in [10], the “IC50 (read off the curve); VEGFR1 reporter luciferase with 20 pM VEGF110 constant” value is about 1e-10 M. In addition, in the test with human VEGF165 (REGN110) [11], the “IC50 (read off the curve); VEGFR1 reporter luciferase with 40 pM VEGF165 constant” value is about 2e-10 M. In addition, in test [12], the “IC50 (read off the curve); VEGFR1 reporter luciferase with 40 pM VEGF121 constant” value is about 1e-10 M.

Turning to B6, the “t1/2 (dissociative half-life)” value with human VEGF165 (REGN110) [13] is at least 1160 min. Also, the “2nM hVEGF165 Bound” value with human VEGF165 (REGN110) [14] amounted to 29 RU. Moreover, the “IC50 (M), inhibition of VEGFR1 signaling (luciferase), 20 pM VEGF110” value was found to be 1.53e-11 M in [15], 1.15e-11 M in test [19] and 1.53e-11 M in test [22]. Besides, the “IC50 (M), inhibition of VEGFR1 signaling (luciferase), 20 pM VEGF121” value in test [16] amounted to 9.64e-12 M; in [21], 1.26e-11 M; in [24], 8.94e-12 M. Also, the “100 nM hVEGF165 Bound” value with human VEGF165 (REGN110) [17] turned out to be 21 RU. In addition, the “t½ (dissociative half-life)” value in the test with human VEGF165 (REGN110) [18] was at least 1160 min. In addition, the “IC50 (M), inhibition of VEGFR1 signaling (luciferase), 20 pM VEGF165” value is 2.09e-11 M with human VEGF165 (REGN110) [20] and 1.18e-11 M with human VEGF165 (REGN110) [23].

A word on the koff: it is the rate constant with which the complex falls apart. The low end stands for a long-lived complex, the high end for a short-lived complex. As usually defined, the kon is the rate constant with which the complex forms. Low readings indicate slower complex formation, high ones faster complex formation. For the molecule B7, in the test with human VEGF165 (REGN110) [13], the Kd is 0.0715 nM, the koff came to 0.000387 s⁻¹, the kon was 5.41e+06 M⁻¹ s⁻¹ and the “t1/2 (dissociative half-life)” value stood at 29.8 min. Also, the “2nM hVEGF165 Bound” value with human VEGF165 (REGN110) [14] was 36 RU. The “100 nM hVEGF165 Bound” value with human VEGF165 (REGN110) [17] came out at 36 RU. Besides, in the test with human VEGF165 (REGN110) [18], the Kd was found to be 0.0715 nM, the koff was 0.000387 s⁻¹, the on-rate (kon) worked out at 5.41e+06 M⁻¹ s⁻¹ and the “t½ (dissociative half-life)” value turned out to be 29.8 min. For the same molecule, the “IC50 (M), inhibition of VEGFR1 signaling (luciferase), 20 pM VEGF110” value in test [22] turned out to be 1.61e-10 M. Moreover, the “IC50 (M), inhibition of VEGFR1 signaling (luciferase), 20 pM VEGF121” value in [24] turned out to be 1.66e-10 M.
